According to publication PMC314469, “Protein Interaction Networks by Proteome Peptide Scanning” (PLoS Biology, 2004):

T1: amphyphisin SH3 (AMPH_HUMAN), P49418
T1 chain: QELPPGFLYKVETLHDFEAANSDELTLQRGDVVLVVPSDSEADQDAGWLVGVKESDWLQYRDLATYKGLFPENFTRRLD


What was measured:
[1] = molecular target: T1, amphyphisin SH3 (AMPH_HUMAN), P49418; test: SPOT array
[2] = molecular target: endophilin SH3 (SH3G2_HUMAN), Q99962; test: SPOT array

| Binder | normalised SPOT signal, Boehringer light units (BLU); mean over the file's lines of this peptide [1] | normalised SPOT signal, Boehringer light units (BLU); mean over the file's lines of this peptide [2] |
| --- | --- | --- |
| KSQYFWRPKRMELS [Q9NYS8 813-826] | 733 | 232 |
| KPVSPRRPWSPSKE [Q9HCL7 1184-1197] | 226 | 1760 |
| KQASLKRPPTAGAQ [Q9UBC5 553-566] | 5.2 | 55.2 |
| KPQPPARPPPPVLP [Q9UKL5 750-764] | 1520 | 10900 |
| KQYMLRRPALEDYV [Q9NWS7 207-220] | 79.4 | 148 |
| KSPIPRRPTQSFVK [Q9ULL0 591-604] | 24.8 | 574 |
| ANLQPKRPKTIKQR [Q9NXX2 8-21] | 23.6 | 55.4 |
| KQVSPRRPQATEAV [Q9Y3H2 190-203] | 147 | 125 |
| KRNSLKRPRDVDHR [Q9H8U9 166-179] | 27.9 | 0 |
| KPQTIKRPLNPLAS [Q9UKV6 127-140] | 9 | 52.2 |
| KRKKPSRPAKTRKR [Q9UNZ9 85-98] | 109 | 175 |
| KPRQIKRPLEDAIE [Q9UNI5 8-21] | 57.1 | 30.7 |
| APALPARPHRGLST [Q9UFL7 72-85] | 5990 | 37600 |
| ANPPPKRPVRASSR [Q9HCK1 771-784] | 14200 | 8740 |

Now from value to binder:

| normalised SPOT signal, Boehringer light units (BLU); mean over the file's lines of this peptide [1] | normalised SPOT signal, Boehringer light units (BLU); mean over the file's lines of this peptide [2] | Binder |
| --- | --- | --- |
| 12.4 | 20.7 | KRIKLRRPRVSKQR [Q96FU1 26-39] |
| 32.3 | 41.2 | KPEGLRRPPSKTSM [Q15047 1069-1082] |
| 24.7 | 40.5 | KSKKFRRPDIQYPD [P10451 170-183] |
| 60.3 | 2490 | KRGRPGRPPSTNKK [O00539 35-49] |
| 168 | 398 | KSLRIARPPKQGLN [P49815 945-958] |
| 201 | 1840 | KPGSPYRPPVPRAP [Q14687 646-660] |
| 8020 | 46000 | KPSRPPRPSRPPPP [O43584 85-98] |
| 57.4 | 22.5 | KRKKFKRPPQRLFD [O00267 328-341] |
| 51.5 | 322 | KSLPLRRPSYTLGM [O43166 958-971] |
| 64.7 | 278 | KRVVPKKPPPSPQP [Q13438 518-532] |
| 3550 | 16900 | KPPKPPKPPRPPKT [Q9Y6N4 506-520] |
| 1320 | 7680 | KSQGPAKPPPPRKP [Q13444 758-772] |
| 31.7 | 38.4 | KSLKLRRPLYAHLA [Q13304 138-151] |
| 2580 | 9220 | KPQRPRRPASPIST [P07360 22-35] |
| 29.5 | 50.9 | KSRTLKRPTVLEPI [O60469 1933-1946] |
| 1290 | 25300 | KPPKPPRPPKTLKL [Q9Y6N4 509-523] |
| 118 | 958 | KPPALPRPIRNLEV [P47895 16-29] |
